Laboratory results taken from publication PMC10787639 (Frontiers in Molecular Biosciences, 2023).
Values belong to the molecule of their own block, whether it stands above or below them.

Columns and labels:
[1] = molecular target: Chaetomium thermophilum PCNA (proliferating cell nuclear antigen) (Chaetomium thermophilum); test: crystal structure; Ct PCNA (14 mg/mL) mixed with Ct PolD3 PIP peptide (8 mg/mL in dH2O); crystals in 0.1 M phosphate/citrate pH 4.2, 40% PEG 300; space group P1, one PCNA trimer in the asymmetric unit; 2.45 A; the peptide occupies a single PIP binding site, the others occluded by crystal packing
[2] = molecular target: PolD3/p66 (Homo sapiens) (UniProt Q15054); test: ITC; settings: cited from earlier work
[3] = molecular target: PolD4 (Homo sapiens) (UniProt Q9HCU8); test: ITC; settings: cited from earlier work
[4] = type: physicochemical; settings: lyophilised peptide; resuspended in DMSO at 8 mg/mL (4.8 mM) instead
Source text: A 15mer Ct PolD3 PIP peptide spanning residues 437–451 (sequence: ^437GKGGQGSIMSWFAKK^451) and a 15mer Ct Fen1 peptide spanning residues 339–353 (^339GAQQARIEGFFKVIP^353) were commercially synthesised (GenScript, Piscataway, New Jersey, United States) and obtained in lyophilised form at final purities of 99.4% and 99.1%, respectively.

[5] = molecular target: Chaetomium thermophilum PCNA (proliferating cell nuclear antigen) (Chaetomium thermophilum); test: ITC; 420 uM Ct PolD3 peptide injected into 300 uL of 32.7 uM Ct PCNA; 25°C; 50 mM Tris-HCl, 150 mM NaCl, pH 8.0; duplicate; single site model (1 peptide: 1 PCNA protomer)

Sequence of UniProt Q15054 (Q15054 2-466): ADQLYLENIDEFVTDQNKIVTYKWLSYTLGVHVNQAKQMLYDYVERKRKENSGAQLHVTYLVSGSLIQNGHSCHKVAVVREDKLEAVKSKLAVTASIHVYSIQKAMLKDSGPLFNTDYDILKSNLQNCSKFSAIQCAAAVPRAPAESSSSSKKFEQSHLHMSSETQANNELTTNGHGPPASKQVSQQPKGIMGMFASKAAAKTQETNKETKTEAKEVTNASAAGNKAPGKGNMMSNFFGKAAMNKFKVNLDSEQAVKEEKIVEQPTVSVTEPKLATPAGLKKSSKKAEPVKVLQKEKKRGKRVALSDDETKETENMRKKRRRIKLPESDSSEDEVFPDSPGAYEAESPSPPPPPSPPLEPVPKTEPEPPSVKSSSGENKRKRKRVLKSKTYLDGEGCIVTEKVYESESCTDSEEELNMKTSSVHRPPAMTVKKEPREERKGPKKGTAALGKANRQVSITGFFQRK
Sequence of UniProt Q9HCU8 (Q9HCU8 whole entry): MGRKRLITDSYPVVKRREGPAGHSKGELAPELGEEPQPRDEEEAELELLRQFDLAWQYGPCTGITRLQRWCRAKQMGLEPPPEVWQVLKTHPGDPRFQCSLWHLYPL

stoichiometry N [1]: 3
Molecule: Chaetomium thermophilum PCNA (proliferating cell nuclear antigen) (natural protein)

Molecule: PCNA (from UniProt P12004)
Kd [2]: 16 µM
Kd [3]: 38 µM

Molecule: GAQQARIEGFFKVIP [Ct Fen1 PIP peptide, 15mer Ct Fen1 peptide spanning residues 339–353, commercially synthesised (GenScript), purity 99.1%]
solubility in aqueous solution [4]: insoluble in aqueous solution

Kd [5]: 43.2 µM
stoichiometry N (PIP peptide per PCNA protomer) [5]: 1
B1: Ct PolD3 PIP peptide (15mer, residues 437-451) (peptide)
peptide: GKGGQGSIMSWFAKK
